Assay results reported in FireProtDB (doi:10.1021/bi00458a027).
Where “and” joins values, the source holds several entries; their conditions need not be identical. Equal values may be shown once.

Conditions: Escherichia coli (strain K12), pH 7.8, Urea, CD, Potassium phosphate 10 mM, whole UniProt chain shown

B1: Tryptophan synthase alpha chain wild type, P0A877 (protein)
chain: MERYESLFAQLKERKEGAFVPFVTLGDPGIEQSLKIIDTLIEAGADALELGIPFSDPLADGPTIQNATLRAFAAGVTPAQCFEMLALIRQKHPTIPIGLLMYANLVFNKGIDEFYAQCEKVGVDSVLVADVPVEESAPFRQAALRHNVAPIFICPPNADDDLLRQIASYGRGYTYLLSRAGVTGAENRAALPLNHLVAKLKEYNAAPPLQGFGISAPDQVKAAIDAGAAGAISGSAIVKIIEQHINEPEKMLAALKVFVQPMKAATRS
denaturant m value (4 °C): 3.1 kcal/mol/M and 1.9 kcal/mol/M
denaturant midpoint (higher = more stable) (4 °C): 1.63 M and 3.17 M
unfolding free energy (4 °C): 20.9 kJ/mol and 25.1 kJ/mol
denaturant m value (25 °C): 1.2 kcal/mol/M
denaturant midpoint (higher = more stable) (25 °C): 4.18 M
unfolding free energy (25 °C): 20.9 kJ/mol
